The nature of this series: yeast display, Sf9 membrane polyspecificity reagent, FACS + sequencing; frameworks hold sequencing errors. The gist of the method:
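In a synthetic yeast display library (Saccharomyces cerevisiae BJ5465), nanobody expression was induced with galactose for 36–48 hours. FACS gates were set low and high (top ~1%) using anti-HA fluorescence for expression and streptavidin fluorescence for binding of the Sf9 membrane reagent. Each polyreactivity label is drawn from the gate of origin.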
With “QFQLVESGGGLVQAGGSLRLSCAASGFTFSHNTMGWYIQSPGKEREFVARISGRGVSTSYADSVKGRFTISRDNAKNTVYLQMNCLKPEDTAVYYCNRRVAYLSGYSYDYWGQGTQVTVSS”, the “polyreactivity (PSR sort gate)” value is “high polyreactivity”. The result for “QFQLVESGGGLVQAGGSLRLSCAASGFTFYLYAMGWYRQAPGKERELVAAIRGSGGSTYYADSVKGRFTISRDTAKNSVYLQMNSLKPEDTEVYYCAADYKVSASWYYAYTFYYWGQGTQVTVSS” reads “low polyreactivity”; that for “QFQLVESGGGLVQAGGSLRLSCAASGGIFTDYTMGWYRQAPGKERELVAAITWTGGSTYYADSVKGRFTISRDNAKNTVYLQMNILKPEDTAVYYCAADDYWVNLDYWGQGTQVTVSS”, “low polyreactivity”.

Regarding “QFQLVESGGGLVQAGGSLRLSCAASGGTFDPYAMGLYRQAPGKERELVAAINYGGGSTYYADSVKGRFTISRDNAKNTVYLQMNSLKPEDTAVYYCAADGGRLTTSQLAQWEYDYWGQGTQVTVSS”, the “polyreactivity (PSR sort gate)” value is reported as “low polyreactivity”. The value for “QFQLVESGGGLVQAGGSLRLSCAASGIIFGRYTKGWYRDAPGKETELVAAITSSGITYYADSVKGRFTISRDNAKNTVYLQMNSLKPEDTAVYYCAADVGYWGRSRGYPSDDYDYWGQGTQVTVSS” was “low polyreactivity”.

Regarding “QFQLVESGGGLVQAGGSLRLSCAASGIILRGYAMGWYRQAPGKERELVASISRGGSTNYADSVKGRFTISRDNAKNTVYLQMNSLKPEDTAVYYSNARIWYYGRYQGAYRFDYWGQGTQVTVSS”, the “polyreactivity (PSR sort gate)” value is “high polyreactivity”. The value for “QFQLVESGGGLVQAGGSLRLSCAASGINFGRNTMGMYRQAPGKERELVAAIDSGGNTYADSVKGRFTISRDNAKNTVYLQMNSLKPEDTAVYFCAVDGGEFSSYGYWGQGTQVTVSS” was “low polyreactivity”; that for “QFQLVESGGGLVQAGGSLRLSCAASGITFSFYAIVWYRQATGKERELVAAINGRGGRTYYADSVKGRFTISRDKAKNTFYLQMNSLKTEDTAVYFCAAVVWRTDYDYWGQGTQVTVSS” was “low polyreactivity”. The result for “QFQLVESGGGLVQAGGSLRLSCAASGLIFTANAMGWYRQAPGKERELVASITWSGDSTYYADSVKGRFTISRDNAKNTVYLQMNSLKPEDSAVYYCNARPVYTYVTYDGNYWGQGTQVTVSS” reads “low polyreactivity”; that for “QFQLVESGGGLVQAGGSLRLSCAASGRIFNGNAMGLYRQAPGKERELVAASTSDGSTYADSVKGRFTISRDNAKNTVYLQMNSLKPEDTAVYYCNRDGYTNSRGYEFYYWGQGTQVTVSS”, “low polyreactivity”; that for “QFQLVESGGGLVQAGGSLRLSCAASGRIFRRYTMGWYRQAPGKERELVATITWDGVSTYYADSVKGRFTISRDNAKNTVYLQMNSLKPEDTAVYYCNVDVYYYVLSYQYDYWGQGTQVTVSS”, “high polyreactivity”. The result for “QFQLVESGGGLVQAGGSLRLSCAASGRIFVQYAMGWYRQATGKQTEFVAAISYRGGSTYYADSVKGRFTISRDNSKITVYLPMNSLKPEDTAVYYCAIVFPYRGKVTLDYWVQGTQVTVSS” reads “low polyreactivity”; that for “QFQLVESGGGLVQAGGSLRLSCAASGRIFVRYAMGLYRKAPGKERELVAAISKSGGSTYYADSVKGRFTISRDNAKNTVYLQMNSLKPEDTAVYYCNALVRRRPGYIRYDYWGQGTQVTVSS”, “low polyreactivity”. Take “QFQLVESGGGLVQAGGSLRLSCAASGRIFVRYAMGWYRQAPGKERELVAGITWSGGSTYYADSVKGRFTISRDNSKNTVYLQMNSLKPEDTAVYYCAAERRFYTSYKSKMESCGQGTQVTVSS”: the “polyreactivity (PSR sort gate)” value is “high polyreactivity”.

For “QFQLVESGGGLVQAGGSLRLSCAASGRIFVYNAMGLYRQAPGKEREFVATITSSGGRTYYADSVKGRFTISRDNAKNTVYLQLNSLKPEDTAVYYWAARPQNNGRNPLYRYNYWGQGTQVTVSS”, the “polyreactivity (PSR sort gate)” value is on record as “high polyreactivity”.

For the sequence “QFQLVESGGGLVQAGGSLRLSCAASGRIIAFYARGWYRQAPGKERELVAAITSGSSTNYADSVKGRFTISRDNAKNTVYLQMNSLKPEDTAVYYCAAEGLRKGDRTDWKLYEYWGQGTQVTVSS”, the “polyreactivity (PSR sort gate)” value is listed as “high polyreactivity”. The result for “QFQLVESGGGLVQAGGSLRLSCAASGRTFGSNVRGWYRQAPGKERELVAAISVSGGSTYYADSVKGRFTISRDNAKNTVYLQMNSLKPDDTAVYYCAADYPTLGYTQNDYWGQGTQVTVSS” reads “low polyreactivity”; that for “QFQLVESGGGLVQAGGSLRLSCAASGRTFIVYAMGWYRQAPGKERELVAGITLGSTNYADSVKGRFTISRDNAKNTVYLQMNSLKPEDTAVYYCAARSSRRGPISEGDYWGQGTQVTVSS”, “high polyreactivity”.

As to “QFQLVESGGGLVQAGGSLRLSCAASGRTFKKYAMGWYRQAPGKESELVAAITFSGGSTYYADSVKGRFTISRDNANNTVYLQMNSLKPEDTAVYYCAAKRLGGSYGSDYWGQGTQVTVSS”, the “polyreactivity (PSR sort gate)” value is given as “high polyreactivity”.

“QFQLVESGGGLVQAGGSLRLSCAASGRTFKYNAMGWYRQAPGKERELVAAISSTGSTNYADSVKGRFTISRDNAKNTVYLQMNSLKPEDTAVYYSAARGLPSNYYYYVHGYIMYYWGQGTQVTVSS”: the “polyreactivity (PSR sort gate)” value is “low polyreactivity”.

As to “QFQLVESGGGLVQAGGSLRLSCAASGRTFQLNAMGWYRQAPGKERELVAAISTRGGSTNYADSVKGRFTISRDNAKNTVYLQMNRLKPEDTAVYYCAKDPSFTRGFKEGGGYDYWGQGSQVTVSS”, the “polyreactivity (PSR sort gate)” value is on record as “high polyreactivity”. The result for “QFQLVESGGGLVQAGGSLRLSCAASGRTFYAYAMGWYRQAHGKARELVAAIRGRTYYADSVKGRFTISSDNAKNTVYLQMNSLKPEDTAVYYCAARWVPREKLMFYWGQGTQVTVSW” reads “high polyreactivity”; that for “QFQLVESGGGLVQAGGSLRLSCAASGRTFYQYTMGWYRQAPGKERELVAAITTSTGNTYYADSVKGRFTISRDNAKNTVYLQLNSLKPEDTAVYYCAAEPPTYKLLDYWGQGTQVTVSS”, “low polyreactivity”. The value for “QFQLVESGGGLVQAGGSLRLSCAASGRTSLGYDMRWYRQAPGKERELVAAITRSGGYTYYADSVKGRFTISRDNAKNTVYLQMNSLKPEDTAVYYCAAYWRYSGYYYWGQGTQVTVSS” was “low polyreactivity”; that for “QFQLVESGGGLVQAGGSLRLSCAASGSIFDIYAMGWYRPAPGKERELVADITISGGSTYYADSVKGRFTISRDNAKNTVYLQLNSLIPEDTAVYYCAADVTVVLGYKYDYWGQGTQVTVSS” was “low polyreactivity”; that for “QFQLVESGGGLVQAGGSLRLSCAASGSIFFIYAMGWYRQAPGKERELVATITSGGSTYYADSVKGRFTISRDNAKNTVYLQMNSLKPEDTAVYYCAVDEYFAFDYWGQGTQVTVSS” was “low polyreactivity”. The result for “QFQLVESGGGLVQAGGSLRLSCAASGSIFVPYAMGWYRQAPGKERELVAAISSSTASTYYADSVKGRFTISRDNAKNTVYLQMNSLKPEDTAVYYCNAEQWDYGVRVAHYDYWGQGTQVTVSS” reads “low polyreactivity”. For the sequence “QFQLVESGGGLVQAGGSLRLSCAASGSIFVYNVMGWYRQAPGKERELVAAITYSGGGTYYADSVKGRFTISRDTAKNTVYLQMNSLKPEDTAVYYCAAAYPSVAYSYRYDYWGQGTQVTVSS”, the “polyreactivity (PSR sort gate)” value was “high polyreactivity”. The result for “QFQLVESGGGLVQAGGSLRLSCAASGSIFYRNAMGWYRQAPGKERELVAAISRRGGSTYYADSVKGRFTISRDNAKNTVYLQMNSLKPEDTAVYYCATDGSTSKLVTVAYDYWGQGTQVTVSS” reads “high polyreactivity”; that for “QFQLVESGGGLVQAGGSLRLSCAASGSTFGVYALGWYRQAPGKARELVATINSGGSTNYADSVKRRFTSSRDNAKNTVYLQMTSLTPEDTAVYYCAAGPFWQDFYVYEYDYWGQGTQVTVSS”, “low polyreactivity”. The result for “QFQLVESGGGLVQAGGSLRLSCAASGSTFNYNAMGWYRQAPGKERELVAAISSSGGSTYYADSVKGRITISRDNAKNTVYLQMNSLKPEDTAVYSCATGGSSRVRTEGDYWGQGTQVTVSS” reads “low polyreactivity”; that for “QFQLVESGGGLVQAGGSLRLSCAASGTFYPYAMGWYRQAPGKERELVAGITGSGGYTYFADSVKGRFTISRDNAKNTVYLQMNSLKPEDTAVYYCAKRSWIEYDYWGQGTQVTVSS”, “low polyreactivity”. The result for “QFQLVESGGGLVQAGGSLRLSSAASGFIIRYYAMGWYRQAPGKERELVAAISASGGSTYYADSVKGRFTISRDNAKNTVYLQMNSLKPEDTAVYYCAARYWLREDYWGQGTQVTVSS” reads “high polyreactivity”. As to “QFQLVESGGGLVQPGGRLRLICAASGHNFPLNAMGWYRQAPGKERELVAAISRTGGSTYYADSVKGRFTISRDNAKFSVYLQMNSLKPEDTALYFCAKRGQACEDYWGEGTQVTVSS”, the “polyreactivity (PSR sort gate)” value is given as “high polyreactivity”. The result for “QFQLVESGGGLVQSGGSLRLSCAASGLIFVFYAMGWYRQAPGKERELVAAISTSGDRTYYADSVKGRFTISRDNAKNTVYLQMNSLKPEDTAVYYCAAGRRKVPYSREYYYWGQGTQVTVSS” reads “high polyreactivity”; that for “QFQLVESGGVLDQAGGSLRLSCAASGSNFTIYAIGWYRQAPGKERELVADISSGGSTYYADSVKGRFTISRDNAKNTVYLQMNSLNPEDTAVYYCAAGVFFFTFVYWGQGTQVTVSS”, “low polyreactivity”. For the sequence “QFQLVESGGVLVQAGGILRLSCAASGSIFIDNAMGWYRQEPGKERDLVAAITVRGASTNYADSVKGRFTISRDNAKNTVYLQMNSLKPEDTAVYYCNAVGLRSPWHQDYLIRYDYWGQGTQVTVSS”, the “polyreactivity (PSR sort gate)” value is recorded as “low polyreactivity”.

Turning to “QFQLVESGRGLVQAGGSLRLSCAASGSIFYAYAMGWYRKAPGKEREFVAVISYSGGSTYYADSVQGRFTISRDKAKNTVYLQMNSLKPEDTAVYYCAARYRAWSGNYWGQGTQVTVSS”, the “polyreactivity (PSR sort gate)” value is on record as “high polyreactivity”. The result for “QFQLVESLGGLDQAGGSLRLSFAASGLIILAYAMVWYRQAPGKERELVAAISRNRGSTYYADSVKGRLTISRDNAKNTVYLQMNSLKPEVTEVYYCNNVSRSSVYLDYYYWGQGTQVTVSS” reads “high polyreactivity”; that for “QFQLVESRGGLVQAGGSLRLSCAASGSIFGSNAMGLYRQAPAKERELVAANSGSGGSTNYADSVKGRLTLSRDIAQNTVYLHMNSLKPEDTAVYYCAVPSKATGSASTSYGIFDSWGQGTQVTVSS”, “low polyreactivity”.

The values above are taken from the nanobody polyreactivity screen of Harvey et al. (2022).
